Test results as given in the supplement of paper PMC10567573.

B1: HSP90AB1 (parent)
chain: EADKNDKAVKDLVVLLFETALLSS
B2: BTBD1 (parent)
chain: TSAEIELPDVEPAAFLALLRFLYS

Variants of: B1
Assay: protein stability index of a GFP-peptide fusion (GPS, HEK-293T) (PSI 1-6); higher = more stable
Settings: c terminus: a fixed tail appended
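Further: lentivirally expressed fusions sorted by FACS into six bins by GFP to DsRed ratio, PSI derived from sequencing read proportions per bin multiplied by bin number.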

Protein stability index of substitutions, site by site:
D6: G 1.85, M 2.64, H 2.6, C 2.48, N 1.9, I 3.48, A 2.51, F 3.2, K 1.28, L 2.27, E 1.63
E1: G 2.37, L 2.02, M 2.69, N 1.89, C 1.88, V 2.54, T 2.58, I 2.56, W 2.3, F 1.36, A 1.45, S 1.78, D 1.86, K 1.61, Q 1.87, P 1.95, H 1.94, R 1.69
K4: H 1.82, N 2.05, G 1.34, A 1.9, M 2.13, F 2.21, T 2.06, Y 2.13, W 2.12, C 1.87, V 1.85, I 2, P 1.63, D 2.13, L 1.75, S 1.8, E 2.2, R 1.59, Q 2.09
A2: C 1.74, R 2.26, F 2.04, P 1.79, W 1.92, D 2.04, Q 1.54, V 2.1, Y 1.73, T 2.15, G 1.33, L 1.68, N 2.11, H 2.1, I 1.73, S 1.77, K 1.68, M 1.67
D3: L 1.86, M 1.25, N 2.13, G 1.58, S 2.65, W 1.86, P 2.47, V 2.02, E 1.65, T 1.65, R 1.9, K 1.58, Q 1.82, Y 2.46, A 2.57, H 1.98, F 3.79, C 1.4, I 1.9
N5: Q 1.8, G 1.67, A 2.57, I 1.9, P 1.59, T 2.43, K 2.35, M 2.27, H 1.68, L 1.99, F 1.64, R 1.63, Y 1.83, S 2, V 1.93, E 2.06, W 2.28

Variants of: B2
Assay: as above
Settings: c terminus: a fixed tail appended

Protein stability index, by site and new letter:
L22: A 1.71, I 1.75, T 1.98, P 2.26, D 1.87, C 1.64, S 1.16, W 1.56, M 2.23, E 2.07, K 1.91, Y 1.83, N 2.06, R 1.26, H 1.96, F 2.61, G 1.72, Q 1.5, V 2.15
F21: T 1.89, R 2.25, V 2.01, Y 1.61, S 1.97, P 1.8, Q 1.99, W 2.41
S24: Q 2.33, G 2.86, M 2.37, L 2.39, D 1.89, V 2.1, Y 1.94, W 1.89, P 2.61, T 1.97, H 1.72, E 1.69, C 2.12, K 1.52, A 2.19, F 2.33, I 2.32, N 1.78, R 2.44
Y23: F 1.75, N 1.61, R 2.26, G 1.58, K 2.1, C 1.79, Q 2.21, V 2.37, T 1.94, I 1.97, W 1.99, D 1.49, A 1.99, M 2.27, E 1.9, L 2.57, S 1.36, P 1.75, H 1.6
